The record followed here is article PMC3836765.

The target in assay [1] is MDMX (human (endogenous in SJSA-1)) (UniProt O15151).
The target in assay [2] is MDM2 (human (endogenous in SJSA-1)) (UniProt Q00987).
Assay [3] has as its target MDMX (human (endogenous in SJSA-1)) (UniProt O15151). This is another data set of the same source.
Assay [4] addresses MDM2 (human (endogenous in SJSA-1)) (UniProt Q00987). This is another data set of the same source.
Assay [5] has as its target MDMX (human (endogenous in SJSA-1)) (UniProt O15151). This is another data set of the same source.
Assay [6] addresses MDM2 (human (endogenous in SJSA-1)) (UniProt Q00987). This is another data set of the same source.

MDMX (human (endogenous in SJSA-1)), sequence (O15151 whole entry): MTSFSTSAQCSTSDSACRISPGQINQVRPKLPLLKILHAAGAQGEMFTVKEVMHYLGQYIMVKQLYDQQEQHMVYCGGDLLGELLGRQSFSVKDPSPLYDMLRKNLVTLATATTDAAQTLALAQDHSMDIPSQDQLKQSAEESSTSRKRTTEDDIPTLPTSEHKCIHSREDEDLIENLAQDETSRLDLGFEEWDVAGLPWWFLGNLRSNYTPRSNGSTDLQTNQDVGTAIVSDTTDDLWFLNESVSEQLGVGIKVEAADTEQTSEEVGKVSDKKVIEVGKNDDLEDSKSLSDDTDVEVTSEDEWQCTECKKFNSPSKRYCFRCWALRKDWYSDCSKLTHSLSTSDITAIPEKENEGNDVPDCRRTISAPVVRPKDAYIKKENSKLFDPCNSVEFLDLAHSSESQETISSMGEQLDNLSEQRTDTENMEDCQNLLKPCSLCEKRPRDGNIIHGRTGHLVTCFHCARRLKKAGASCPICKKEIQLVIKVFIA
MDM2 (human (endogenous in SJSA-1)), sequence (Q00987 whole entry): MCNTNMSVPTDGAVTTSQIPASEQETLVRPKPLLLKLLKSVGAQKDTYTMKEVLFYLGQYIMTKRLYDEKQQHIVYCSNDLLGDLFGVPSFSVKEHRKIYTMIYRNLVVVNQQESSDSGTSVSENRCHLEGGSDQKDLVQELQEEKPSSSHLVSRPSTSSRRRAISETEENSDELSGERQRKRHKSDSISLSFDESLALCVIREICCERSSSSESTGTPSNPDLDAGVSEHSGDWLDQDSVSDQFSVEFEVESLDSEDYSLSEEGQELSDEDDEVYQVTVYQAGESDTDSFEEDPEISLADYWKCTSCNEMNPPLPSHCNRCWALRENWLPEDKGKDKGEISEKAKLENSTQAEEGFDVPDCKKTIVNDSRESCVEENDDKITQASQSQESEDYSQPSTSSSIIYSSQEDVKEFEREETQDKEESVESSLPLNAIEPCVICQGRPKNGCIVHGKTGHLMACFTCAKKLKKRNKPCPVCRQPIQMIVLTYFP

Turning to “recombinant human serum albumin fused at its C-terminus to the MDM2/MDMX-binding peptide N8A-PMI (rHSA-PMI), biotinylated (from UniProt P02768 25-608)”, the caspase activation in SJSA-1 cells, Homogeneous Caspase Assay, 24 h, fold change in assay [1] and in assay [2] was 7 fold throughout. Further, the p53 protein level in SJSA-1 cells after 24 h with 10 uM protein, Western blot densitometry, fold increase in assay [3] and in assay [4] was 2.9 fold each time. For the same substance, the cytotoxicity in SJSA-1 cells, CyQuant Assay, 24 h, percent cell death relative to 10 uM rHSA-treated cells (concentrations as indicated in Figure 4A) in assay [5] and in assay [6] was 84 % cell death in each case.
As for “recombinant human serum albumin fused at its C-terminus to the wild type p53-derived peptide P53i (rHSA-P53i), biotinylated (from UniProt P02768 25-608)”, the caspase activation in SJSA-1 cells, Homogeneous Caspase Assay, 24 h, fold change in assay [1] and in assay [2] was under 2 fold throughout. Moreover, the p53 protein level in SJSA-1 cells after 24 h with 10 uM protein, Western blot densitometry, fold increase in assay [3] and in assay [4] was 1.5 fold each time. The cytotoxicity in SJSA-1 cells, CyQuant Assay, 24 h, percent cell death relative to 10 uM rHSA-treated cells (concentrations as indicated in Figure 4A) in assay [5] and in assay [6] was 60 % cell death in each case.
